# Laboratory results as given in the RNAGym collection of RNA variant scans (doi:10.7554/elife.80360).
# B1: HDV Ribozyme (parent)
# chain: GGCCGGCAUGGUCCCAGCCUCCUCGCUGGCGCCGGCUGGGCAACAUUCCGAGGGGACCGUCCCCUCGGUAAUGGCGAAUGGGACCCA
# Variants of: B1
# Assay: self-cleavage, relative activity (ratio to wild type); higher = more cleavage; co-transcriptional
row,Variant,self-cleavage
1,GGACGGCAUGGUCCCAGCCUCCUCGCUGGCGCCGACUGGGCAACAUUCCGAGGGGACCGUCCCCUCGGUAAUGGCGAAUGGGACCCA [C3A G35A],0.859
2,GGCCGGCAUGGUCCCAGCCUACUCGCUGGCGCCGGCUGGGCAACAUUCCGAGGGGACCGUCCCCUCGGUAAUGGCGAAUGGGACCUA [C21A C86U],0.0308
3,GGCCGGCAUGGUCCCAGCCUCCUCGCUGGCGGCGGCUGGGCAACAUUCCGAGGGGACCGUCCCUUCGGUAAUGGCGAAUGGGACCCA [C32G C64U],0.109
4,GGCCGGCCUGGUCCCAGCCUCCUCGCUGGCGCCGGCUGGGUAACAUUCCGAGGGGACCGUCCCCUCGGUAAUGGCGAAUGGGACCCA [A8C C41U],0.748
5,GGCCGGCAGGGUCCCAGCCUCCUCGCUGGCGCCGGCUGGGCAUCAUUCCGAGGGGACCGUCCCCUCGGUAAUGGCGAAUGGGACCCA [U9G A43U],0.886
6,GGCCGGCAUGGUCCCAACCUCCUCGCUGGCGCCGGCUGGGCAACAUUCCGAGGGGACCGUCCCCUCGGUACUGGCGAAUGGGACCCA [G17A A71C],0.151
7,GGCCGGCAUGGUCCCAGCCUCCUCGCUGGCGCCGGCUGGGCAACAUUCCGAGGGGACCGUCCCCUCGGUUAUGGCGAAUGCGACCCA [A70U G81C],0.193
8,GGCCGGCAUGGUCCCAGCCUCCUCGCCGGCGCCGGCUGGGCAACAUUCCGCGGGGACCGUCCCCUCGGUAAUGGCGAAUGGGACCCA [U27C A51C],0.858
9,GGCCGGCAUGGUCCCAGCCUCCUCGCUUGCGCCGGCUGGGCAACAUUCCGAGGGGACCGUCCCCUCGGUAAUGGAGAAUGGGACCCA [G28U C75A],0.0755
10,GGCCGGCAUGGUCCCAGCCUCCUCGCUGGCGCCGGCUGGGCAACAUUCCGAGGGGACCGUCCCCUCGGAAAUGGCGAACGGGACCCA [U69A U79C],0.499
11,GGCCGGCAUGGUCCCAGCCUCCUCGCUGGCGCCGCCUAGGCAACAUUCCGAGGGGACCGUCCCCUCGGUAAUGGCGAAUGGGACCCA [G35C G38A],0.155
12,GACCGGCAUGGUCCCAGCCUCCUCGCUGGCGCCGGCUGGGCAACAUUCCUAGGGGACCGUCCCCUCGGUAAUGGCGAAUGGGACCCA [G2A G50U],0.0779
13,GGCCGUCAUGCUCCCAGCCUCCUCGCUGGCGCCGGCUGGGCAACAUUCCGAGGGGACCGUCCCCUCGGUAAUGGCGAAUGGGACCCA [G6U G11C],0
14,GGCCGGCAUGGUCCCAGCCUCCUCGCUGGCGCCGGCUGGGCCACAUUCCGAGGGGACCGUCCCCUCGGUAAUGGCGACUGGGACCCA [A42C A78C],0.169
15,GGCCGGCAUGGUCCCAGCCUCCUCGCUGGCGCCGGCUGGGCCACAUUCCGAGGGGACCGUCGCCUCGGUAAUGGCGAAUGGGACCCA [A42C C62G],0.0898
16,GGCCGGCAUGGUCCCAGCCUCCUCGCUGGCGCCGGCUUGGCAACAUUCCGAGGGGACCGUCCCAUCGGUAAUGGCGAAUGGGACCCA [G38U C64A],0.257
17,GGCCGGCAUGGUCCCAGCCUCCUUGCUGGCGCCGGCUGGGCAACAUUCCGAGGGGACCGUCCCCUCGGUAUUGGCGAAUGGGACCCA [C24U A71U],0.587
18,GGCCCGCAUGGUCCCAGCCUCCUCGCUGGCGCCGGCUGGGCCACAUUCCGAGGGGACCGUCCCCUCGGUAAUGGCGAAUGGGACCCA [G5C A42C],0.115
19,GUCCGGCAUGGUCCCAGCCUCCUCGCUGGCGCCGGCUGGGCAACAUUCCGAGGGGACCGUCCCCUCGGUAAUGGCGAAUGAGACCCA [G2U G81A],0
20,GGCCGGCAUGGUCCCAGACGCCUCGCUGGCGCCGGCUGGGCAACAUUCCGAGGGGACCGUCCCCUCGGUAAUGGCGAAUGGGACCCA [C18A U20G],0.249
21,GGCCGGCAUGGUCCCAGCCUCCUCGCUGGCGCCGGCUGGGCAACAUUCCGAGGGGACAGUCCCCUCGGUAAGGGCGAAUGGGACCCA [C58A U72G],1.09
22,GGCCGGCAUGGUCCCAGCCUCCUCGCUGGCGCCGACUGGGCAAAAUUCCGAGGGGACCGUCCCCUCGGUAAUGGCGAAUGGGACCCA [G35A C44A],0

row,Variant,self-cleavage
1,GGCCGGCAAGGUCCCAGCCUCCUCGCUGGCGCCGGCUGGGCAACAUUCCGAGGGGACCGUCCCCUCGGCAAUGGCGAAUGGGACCCA [U9A U69C],0.802
2,AGCCCGCAUGGUCCCAGCCUCCUCGCUGGCGCCGGCUGGGCAACAUUCCGAGGGGACCGUCCCCUCGGUAAUGGCGAAUGGGACCCA [G1A G5C],0
3,GGCCGGCGUGGUCCCAGCCUCCUCGCUGGCGCCGGCUGGGCAACAUUCCGAGGGGACCGUCCCCCCGGUAAUGGCGAAUGGGACCCA [A8G U65C],1.05
4,GGCCGGCGUGGUCCCAGCCUCCUGGCUGGCGCCGGCUGGGCAACAUUCCGAGGGGACCGUCCCCUCGGUAAUGGCGAAUGGGACCCA [A8G C24G],0.0639
5,GGCCGGCAUGGGCCAAGCCUCCUCGCUGGCGCCGGCUGGGCAACAUUCCGAGGGGACCGUCCCCUCGGUAAUGGCGAAUGGGACCCA [U12G C15A],0.237
6,GGCCGGCAUGGUCCCAGCCUCCUCGCUGGCGCCGGCUGGGCAACAUUCCGAGGGGACCGUCCCCUCGGUAAUUGCGAAUGGGACCCA [G73U],0.382
7,GGCCGGCAUGGGCCCAGCCUCCUCGCUGGCGCCGGCUGGGCAACAUUCCGAGGGGACCGUCCCCUCGGUAAUGGCGAAUGGUACCCA [U12G G82U],0.519
8,GGCCGGCAUGGUCCCAGCCUCCUCGCUGGCGCCGGCUGGGCAACAUUCCGAGGGGAGCGUCCCCUCGGUAAUGGGGAAUGGGACCCA [C57G C75G],0.185
9,GGCCGGCAUGGUCCCAGCCUCCUCGCUGGCGCCGGCUGCGCAAGAUUCCGAGGGGACCGUCCCCUCGGUAAUGGCGAAUGGGACCCA [G39C C44G],0
10,GGCCGGCAUGGUCCCAGCCUCCUCGCUGGCGCAGGCUGGGCAACAUUCCGAGGGGACCGUCCCCUCGGUAAUGACGAAUGGGACCCA [C33A G74A],0.0219
11,GGCCGGCAUGGUCCCAGCCUCCUCGCUGGCGCUGGCUGGGCAACAUCCCGAGGGGACCGUCCCCUCGGUAAUGGCGAAUGGGACCCA [C33U U47C],0.682
12,GGCCGGCAUGGUCCCAGCCUGCUCGCUGGCGCCGGCUGGGCAACUUUCCGAGGGGACCGUCCCCUCGGUAAUGGCGAAUGGGACCCA [C21G A45U],0.0405
13,GGCCGGCAUGGUCCCAACCUCCUCGCUGGCGCCGGCUGGGCAACAUUCCGAGGGGACCGUCCCCUCGGUAAUGGCGAAUGGGAUCCA [G17A C84U],0.598
14,GGCCGGAAUGGUCCCAGCCUCCUCGCUGGCGCCGGCUGGGCAACAUUCCGAGCGGACCGUCCCCUCGGUAAUGGCGAAUGGGACCCA [C7A G53C],0.38
15,UGCCGGCAUGGUCCCAGCCUCCUCGCUGGCGCCGGCUGGGCAACAUUCCGAGGGGACCGUCCCCUCGGUAAUGGCGAAUGGGACCUA [G1U C86U],0.212
16,GGCCGGCAUGGUCCCAGCCUCCUCGCUGGCGCCGGCUGGGCAACCUUCCGAGGGGACCGUCCCCUCGGUAAUGGAGAAUGGGACCCA [A45C C75A],0
17,GGCCGGCAUGGUCCCAGCCUCCUCGCUGGCGCCAGCUGGGCAACAUUCCGAGGGGACCGUCCCCUCGGGAAUGGCGAAUGGGACCCA [G34A U69G],0.306
18,GGCCGGCAUGGUCCCAGCCUCCUCGCUGGCGCCGGCUUGGCAACAUUCCGAGUGGACCGUCCCCUCGGUAAUGGCGAAUGGGACCCA [G38U G53U],0.342
19,GGCCGGCAUGGUCCCAGCCUCCUCGCUGGCGCCGGCUGAGCAACAUUCCGAGGGGACCGUCCCCUCGGAAAUGGCGAAUGGGACCCA [G39A U69A],0.443
20,GGCCGGCAUGGUCCCAGCCUCCCCGCUGGCGCCGGCUGGCCAACAUUCCGAGGGGACCGUCCCCUCGGUAAUGGCGAAUGGGACCCA [U23C G40C],0.0852
21,GGCCGGUAUGGUCCCAGCCUCCUCGCUGGCGCCGGCUCGGCAACAUUCCGAGGGGACCGUCCCCUCGGUAAUGGCGAAUGGGACCCA [C7U G38C],0.0462
22,GGCCGGCAUGGUCCCAGCCUCCUCGCUGGCGUCGGCUGGGCAACAUUCCGAGGGGACCGUCCCCUCGGUAAUGGCGAUUGGGACCCA [C32U A78U],0.178

row,Variant,self-cleavage
1,GGCCGGCAUGGUCCCAGCCUCCUCGCUGGCGCCGCCUGGGCAACAUUCCGAGGGGACCGCCCCCUCGGUAAUGGCGAAUGGGACCCA [G35C U60C],0.237
2,GGCCGGCAUGGUCCCACCCUCCUCGCUGGCGCCGGCUGGGCAUCAUUCCGAGGGGACCGUCCCCUCGGUAAUGGCGAAUGGGACCCA [G17C A43U],0.115
3,GGCCGGCAUGGUCCCAGCCUCCUCGCUGGCGCCAGCUGGGCAACAUUCCGUGGGGACCGUCCCCUCGGUAAUGGCGAAUGGGACCCA [G34A A51U],0.174
4,GGCCGGCAUGGUCCCAGCCUCCUCGCUGGCGCCGGCUGGGCAACAUUCCGAGGGGACCGUCCCCUCGGUAAUGGCCCAUGGGACCCA [G76C A77C],0.104
5,GGCCGGCAUGGCCCCAGCCUCCUCGCUGGCGCCGGCUGGGCAACAUUCCGAGGUGACCGUCCCCUCGGUAAUGGCGAAUGGGACCCA [U12C G54U],0.415
6,GGCCGGCAUGGGCCCAGCAUCCUCGCUGGCGCCGGCUGGGCAACAUUCCGAGGGGACCGUCCCCUCGGUAAUGGCGAAUGGGACCCA [U12G C19A],0.161
7,UGCCGGCACGGUCCCAGCCUCCUCGCUGGCGCCGGCUGGGCAACAUUCCGAGGGGACCGUCCCCUCGGUAAUGGCGAAUGGGACCCA [G1U U9C],0.554
8,GGCCGGCAUGAUCCCAGCCUCCUCGCUGGCGCCGGCUGGGCACCAUUCCGAGGGGACCGUCCCCUCGGUAAUGGCGAAUGGGACCCA [G11A A43C],0.106
9,GGCCGGCAUGGACCCAGCCUCCUCGCUGGCGCCGGCUGGGCAACAUUCCGAGGGGACCGUCCCCUCGGUUAUGGCGAAUGGGACCCA [U12A A70U],0.332
10,GGCCGGCAUGGUCCCAGCCUCCUCGCUGGCGCCGGCUGGGCAACAUUCCGAGGGGACCGUCCCCUCGUUAAUGGCGAAUGGGACCCG [G68U A87G],0.908
11,GGCCGGCAUGGUCCCAGCCUUCUCGCUGGCGCCGGCUGGGCAACAUUCCGAGGGUACCGUCCCCUCGGUAAUGGCGAAUGGGACCCA [C21U G55U],0.17
12,GGCCGGCAUGGUCCCAGCCUCCUCGCUGGCGCCGGCUGGGCAACAUUCCGAGGGGACCGUCCCAUCGGUAAUGGCGAUUGGGACCCA [C64A A78U],0.285
13,GGCCGGCAUGGUCCCAGCCUCCUCUCUGGCGCCGGCUGGGCAACAUUCCGAGGGGACCGUCCCCUCGGUAAUGGCGAAUAGGACCCA [G25U G80A],0.117
14,GGCCGGCAUGGUCCCAGCCUCCUCGCUGGAGCCGGCUGGGCAACAUUCCGAGGGGAUCGUCCCCUCGGUAAUGGCGAAUGGGACCCA [C30A C57U],0.587
15,GGCCGGCAUGGUCCCAGCCUCCUCGCUGGCGCCGGCUGGGCAACAUUCAGAGGGGACCGUCCCCUCGGUAAAGGCGAAUGGGACCCA [C49A U72A],0.225
16,GGCCGGCAAGGUCCCAGCCUCCUCGCUGGCGCCGGCUGGGCAACAUUCCCAGGGGACCGUCCCCUCGGUAAUGGCGAAUGGGACCCA [U9A G50C],0.898
17,GGCCUGCAUGGUCCCAGCCUCCUCGCUGGCGCCGGCUGGGCAACAUUCCGAGGGGACCGUCCCCUCGGUAAUGGCGAAUGAGACCCA [G5U G81A],0.147
18,GGCCGGCAUGGUCCCAGCCUCCUCGCUGGCGCCGGCUGGGCAACAUUCCGAGGGGACCGUCCCCUCGCUAAUGGCGAAUGGGGCCCA [G68C A83G],0.356
19,GGCCGGCAUGGUCCCAGCCUCCUCGCUGGCGCCGGCUGGGCAACAUUCCGAGGGGACCGUCCCCUCGGUAAUGGUGAAAGGGACCCA [C75U U79A],0.151
20,GGCCGGCAUGGUCCCAGCCUCCUCGCUUGCGCCGGCUGGGCAACAUUCCGAGGGGACCGUCCCCUCGGUAAUGGCGAAUGGGACCGA [G28U C86G],0.217
